For assay [1], the target named is T1, human CLDN-18.2 (human, UniProt P56856 1-261). As to the kind of experiment: cell-based or functional assay.
In assay [2] the target is T1, human CLDN-18.2. As to the kind of experiment: cell-based or functional assay. This is another data set of the same source.
Assay [3] has as its target T1, human CLDN-18.2. As to the kind of experiment: flow cytometry on NUGC4-CLDN-18.2 cells overexpressing human CLDN-18.2, 4 °C 30 min, fluorescent secondary antibody, MFI-PE. The procedure:
Finally, the fluorescence intensity was detected by BD CantoII flow cytometer. […] The antibody dose-dependent binding curve was fitted by GraphPad (FIGS. 1a-1d) and EC50 was calculated. The positive controls were the corresponding monoclonal antibodies, and the negative control was anti-KLH IgG1.
In general terms: Flow cytometry measures light scatter and fluorescence of single cells or particles in a stream.

The target of assay [4] is T1, human CLDN-18.2. As to the kind of experiment: cell-based or functional assay. The source holds these as a separate data set.

For orientation: EC50 means the concentration giving half of the maximal effect. Higher therefore signals lower potency in that assay.

Read-outs that look alike come from different tables or passages of the source.

B1: ADC-4-MMAE (antibody, human IgG1, kappa, V domains shown)
VH: EVQLVESGGGLVQPGGSLRLSCAASGFTLNNFGMHWVRQAPGKGLEWVSSISSGSGTIYYADSVKGRFTISRDNPKNSLYLQMNSLRAEDTAVYYCARAYYGNGFSFWGQGTLVTVSS
VL: DIVMTQSPDSLAVSLGERATINCKSSQSLLNSGNQKNYLTWYQQKPGQPPKLLIYWASTRESGVPDRFSGSGSGTDFTLTISSLQAEDVAVYYCQNVYSYPLTFGQGTKLEIKR
modifications: MC-VC-PAB-MMAE (vc-MMAE) coupled after TCEP reduction of the antibody; positions not given; DAR 4.55
notes: also called JS107-4-MMAE
In the case of B1, the “IC50 of inhibition of NUGC4-CLDN-18.2 cells proliferation (Cell titer Glo, 48 h)” value (shortened to “IC50 of inhibition … (Cell titer Glo, 48 h)”) with human CLDN-18.2 [1] turned out to be 0.011 µg/mL. In addition, the “EC50 of endocytosis (MFI-APC of CypHer5E-labelled conjugate in NUGC4-CLDN-18.2 cells, 37 °C 4 h, FACS)” value in the assay with human CLDN-18.2 [2] was 2.67 µg/mL. In the assay with human CLDN-18.2 [3], the EC50 is 0.495 µg/mL.

B2: ADC-3-MMAE (antibody, V domains shown)
VH: QIQLVQSGSELKKPGESVKVSCKASGYTFTNYGMNWVRQAPGQGLEWMGWINTYTGESTYADGFTGRFVFSSDTSARTAYLQISSLKAEDTAVYFCATLGYGNSLAYWGQGTLVTVSS
VL: DIVMTQSPDSLAVSLGERATINCKSSQSLLNSGNQRNYLTWYQQKPGQPPKLLIYWASTRESGVPDRFSGSGSGTDFTLTISSLQAEDVAVYYCQNNYFYPFTFGQGTKLEIKR
modifications: MC-VC-PAB-MMAE (vc-MMAE) coupled after TCEP reduction of the antibody; positions not given; DAR 3.97
notes: also called JS107-3-MMAE
As for B2, the “IC50 of inhibition … (Cell titer Glo, 48 h)” value with human CLDN-18.2 [1] was 0.0127 µg/mL. Moreover, the “EC50 of endocytosis (MFI-APC of CypHer5E-labelled conjugate in NUGC4-CLDN-18.2 cells, 37 °C 4 h, FACS)” value in the assay with human CLDN-18.2 [2] was found to be 0.937 µg/mL. The half-maximal effective concentration (EC50) with human CLDN-18.2 [3] is 2.96 µg/mL.

B3: JS012-Chi9-hu7 (antibody, human IgG1, kappa, V domains shown)
VH: QIQLVQSGSELKKPGESVKVSCKASGYTFTNYGMNWVRQAPGQGLEWMGWINTYTGESTYADGFTGRFVFSSDTSARTAYLQISSLKAEDTAVYFCATLGYGNSLAYWGQGTLVTVSS
VL: DIVMTQSPDSLAVSLGERATINCKSSQSLLNSGNQRNYLTWYQQKPGQPPKLLIYWASTRESGVPDRFSGSGSGTDFTLTISSLQAEDVAVYYCQNNYFYPFTFGQGTKLEIKR
notes: also called JS107-3; JS012-chi9-hu07
With B3, it took 3.76 µg/mL to reach a half-maximal effect in the assay with human CLDN-18.2 [3] (EC50).

B4: ADC-4-MMAF (antibody, human IgG1, kappa, V domains shown)
VH: EVQLVESGGGLVQPGGSLRLSCAASGFTLNNFGMHWVRQAPGKGLEWVSSISSGSGTIYYADSVKGRFTISRDNPKNSLYLQMNSLRAEDTAVYYCARAYYGNGFSFWGQGTLVTVSS
VL: DIVMTQSPDSLAVSLGERATINCKSSQSLLNSGNQKNYLTWYQQKPGQPPKLLIYWASTRESGVPDRFSGSGSGTDFTLTISSLQAEDVAVYYCQNVYSYPLTFGQGTKLEIKR
modifications: MC-MMAF coupled after TCEP reduction of the antibody; positions not given; DAR 3.85
notes: also called JS107-4-MMAF
Take B4: the “IC50 of inhibition … (Cell titer Glo, 48 h)” value in the assay with human CLDN-18.2 [1] was 0.00936 µg/mL. Also, in the assay with human CLDN-18.2 [2], the “EC50 of endocytosis (MFI-APC of CypHer5E-labelled conjugate in NUGC4-CLDN-18.2 cells, 37 °C 4 h, FACS)” value was 1.61 µg/mL. In addition, in the assay with human CLDN-18.2 [3], the response was half-maximal at 1.21 µg/mL (EC50).

B5: JS012-Chi2-hu2-v3-2a (antibody, human IgG1, kappa, V domains shown)
VH: EVQLVESGGGLVQPGGSLRLSCAASGFTLNNFGMHWVRQAPGKGLEWVSSISSGSGTIYYADSVKGRFTISRDNPKNSLYLQMNSLRAEDTAVYYCARAYYGNGFSFWGQGTLVTVSS
VL: DIVMTQSPDSLAVSLGERATINCKSSQSLLNSGNQKNYLTWYQQKPGQPPKLLIYWASTRESGVPDRFSGSGSGTDFTLTISSLQAEDVAVYYCQNVYSYPLTFGQGTKLEIKR
notes: also called JS107-5
With B5, in the assay with human CLDN-18.2 [4], the “EC50 of endocytosis (MFI-APC of CypHer5E-labelled antibody in NUGC4-CLDN-18.2 cells, 37 °C 4 h, FACS)” value was found to be 58.8 µg/mL. The EC50 in the assay with human CLDN-18.2 [3] was 0.347 µg/mL.

B6: ADC-5-MMAE (antibody, human IgG1, kappa, V domains shown)
VH: EVQLVESGGGLVQPGGSLRLSCAASGFTLNNFGMHWVRQAPGKGLEWVSSISSGSGTIYYADSVKGRFTISRDNPKNSLYLQMNSLRAEDTAVYYCARAYYGNGFSFWGQGTLVTVSS
VL: DIVMTQSPDSLAVSLGERATINCKSSQSLLNSGNQKNYLTWYQQKPGQPPKLLIYWASTRESGVPDRFSGSGSGTDFTLTISSLQAEDVAVYYCQNVYSYPLTFGQGTKLEIKR
modifications: MC-VC-PAB-MMAE (vc-MMAE) coupled after TCEP reduction of the antibody; positions not given; DAR 4.1
notes: also called JS107-5-MMAE
B6: the “EC50 of endocytosis (MFI-APC of CypHer5E-labelled conjugate in NUGC4-CLDN-18.2 cells, 37 °C 4 h, FACS)” value in the assay with human CLDN-18.2 [4] turned out to be 21.8 µg/mL. For the same molecule, a half-maximal response with human CLDN-18.2 [3] (EC50) required 0.23 µg/mL.

B7: JS012-Chi2-hu2-v3-2 (antibody, human IgG1, kappa, V domains shown)
VH: EVQLVESGGGLVQPGGSLRLSCAASGFTLNNFGMHWVRQAPGKGLEWVSSISSGSGTIYYADSVKGRFTISRDNPKNSLYLQMNSLRAEDTAVYYCARAYYGNGFSFWGQGTLVTVSS
VL: DIVMTQSPDSLAVSLGERATINCKSSQSLLNSGNQKNYLTWYQQKPGQPPKLLIYWASTRESGVPDRFSGSGSGTDFTLTISSLQAEDVAVYYCQNVYSYPLTFGQGTKLEIKR
notes: also called JS107-4
On to B7, for which, in the assay with human CLDN-18.2 [3], the EC50 was 1.65 µg/mL.

The values above are taken from patent US20250127915A1 (SHANGHAI JUNSHI BIOSCIENCES, published 2025).
